According to US20120058906A1 (published 2012):
Where a chain is given by its changes, count along the chain named. Each block holds one binder with its values, some of them ahead of it.

Legend:
[1] = biological target: T1, rHuman EGF R/Fc Chimera, CF (R&D Systems Cat#344-ER) (human, UniProt P00533 25-645); experiment: MSD ECL multi-spot plate, antigen immobilized; Fab 200 nM; blank spot 529
T1 construct: Purchased Fc chimera; not shown: Fc portion of the purchased chimera

[2] = biological target: T2, rHuman HGF R/c-MET/Fc Chimera, CF (R&D Systems Cat#358-MT/CF) (human, UniProt P08581 25-932); experiment: as above
T2 construct: Purchased Fc chimera; also called HGF R/Fc; not shown: Fc portion of the purchased chimera

[3] = biological target: T3, rHuman ErbB2/Fc Chimera, CF (R&D Systems Cat#1129-ER) (human, UniProt P04626 23-652); experiment: as above
T3 construct: Purchased Fc chimera; also called HER2/neu; not shown: Fc portion of the purchased chimera

[4] = biological target: T4, rHuman Erythropoietin R/Fc Chimera, CF (R&D Systems Cat#963-ER) (human, UniProt P19235 25-250); experiment: as above
T4 construct: Purchased Fc chimera; also called EPO R/Fc; Epo R; not shown: Fc portion of the purchased chimera
T4 sequence: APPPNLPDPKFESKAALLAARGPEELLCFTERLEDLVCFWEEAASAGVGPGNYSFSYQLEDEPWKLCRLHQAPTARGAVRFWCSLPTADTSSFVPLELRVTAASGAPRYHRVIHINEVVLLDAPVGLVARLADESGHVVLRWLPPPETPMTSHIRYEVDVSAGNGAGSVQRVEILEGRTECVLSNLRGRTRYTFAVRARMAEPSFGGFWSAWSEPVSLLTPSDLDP

[5] = biological target: T5, rHuman CD44/Fc Chimera, CF (R&D Systems Cat#3660-CD) (human, UniProt P16070 21-220); experiment: MSD ECL titration, Fab 148.9 nM, blank 218;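 also: blank spot per well as comparator with Hit at signal to blank ratio of 4 or more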
T5 construct: Bought Fc chimera; Fc part of the bought chimera not given

[6] = biological target: T6, rHuman P-Cadherin/Fc Chimera, CF (R&D Systems Cat#861-PC) (human, UniProt P22223 108-654); experiment: MSD ECL titration, Fab 148.9 nM, blank 218;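 also: blank spot per well as comparator with Hit at signal to blank ratio of 4 or more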
T6 construct: Bought Fc chimera; Fc part of the bought chimera not given

[7] = biological target: T7, rHuman EGF R/Fc Chimera, CF (R&D Systems Cat#344-ER) (human, UniProt P00533 25-645); experiment: MSD ECL titration, Fab 148.9 nM, blank 218;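 also: blank spot per well as comparator with Hit at signal to blank ratio of 4 or more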
T7 construct: Bought Fc chimera; Fc part of the bought chimera not given

[8] = biological target: T8, rHuman HGF R/c-MET/Fc Chimera, CF (R&D Systems Cat#358-MT/CF) (human, UniProt P08581 25-932); experiment: MSD ECL titration, Fab 148.9 nM, blank 218;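 also: blank spot per well as comparator with Hit at signal to blank ratio of 4 or more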
T8 construct: Bought Fc chimera; also called HGF R/Fc; Fc part of the bought chimera not given

[9] = biological target: T9, rHuman Erythropoietin R/Fc Chimera, CF (R&D Systems Cat#963-ER) (human, UniProt P19235 25-250); experiment: MSD ECL titration, Fab 148.9 nM, blank 218;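 also: blank spot per well as comparator with Hit at signal to blank ratio of 4 or more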
T9 construct: Bought Fc chimera; also called EPO R/Fc; EPOR; Fc part of the bought chimera not given
T9 sequence: T4 sequence

[10] = biological target: T10, rHuman Notch-1/Fc Chimera, CF (R&D Systems Cat#3647-TK) (human, UniProt P46531 19-526); experiment: MSD ECL titration, Fab 148.9 nM, blank 218;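 also: blank spot per well as comparator with Hit at signal to blank ratio of 4 or more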
T10 construct: Bought Fc chimera; Fc part of the bought chimera not given

[11] = biological target: T11, rHuman IGF-1 sR (insulin-like growth factor-1 soluble receptor), CF (R&D Systems Cat#391-GR) (human, UniProt P08069 31-932); experiment: MSD ECL titration, Fab 148.9 nM, blank 218
T11 construct: Bought soluble receptor; also called IGF-R1

[12] = biological target: T12, rHuman ErbB2/Fc Chimera, CF (R&D Systems Cat#1129-ER) (human, UniProt P04626 23-652); experiment: MSD ECL titration, Fab 148.9 nM, blank 218
T12 construct: Bought Fc chimera; also called HER2/neu; Fc part of the bought chimera not given

[13] = biological target: T13, Recombinant Human DLL4 (R&D Systems Cat#1506-D4/CF) (human, UniProt Q9NR61 27-524); experiment: MSD ECL titration, Fab 148.9 nM, blank 218
T13 construct: Bought recombinant protein; also called rHuman DLL4; delta-like protein 4

[14] = biological target: T14, rHuman ErbB2/Fc Chimera, CF (R&D Systems Cat#1129-ER) (human, UniProt P04626 23-652); experiment: ECL (MSD multi-spot), antigen on plate, Fab 10 nM;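 also: blank spot per well as comparator with Hit at signal to blank ratio of 4 or more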
T14 construct: Bought Fc chimera; also called HER2/neu; not shown: Fc of the bought chimera

[15] = biological target: T15, rHuman CD44/Fc Chimera, CF (R&D Systems Cat#3660-CD) (human, UniProt P16070 21-220); experiment: ECL (MSD multi-spot), antigen on plate, Fab 10 nM;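 also: blank spot per well as comparator with Hit at signal to blank ratio of 4 or more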
T15 construct: Bought Fc chimera; not shown: Fc of the bought chimera

[16] = biological target: T16, rHuman P-Cadherin/Fc Chimera, CF (R&D Systems Cat#861-PC) (human, UniProt P22223 108-654); experiment: ECL (MSD multi-spot), antigen on plate, Fab 10 nM;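 also: blank spot per well as comparator with Hit at signal to blank ratio of 4 or more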
T16 construct: Bought Fc chimera; also called CDH3; not shown: Fc of the bought chimera

[17] = biological target: T17, rHuman HGF R/c-MET/Fc Chimera, CF (R&D Systems Cat#358-MT/CF) (human, UniProt P08581 25-932); experiment: ECL (MSD multi-spot), antigen on plate, Fab 10 nM;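 also: blank spot per well as comparator with Hit at signal to blank ratio of 4 or more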
T17 construct: Bought Fc chimera; also called HGF R/Fc; not shown: Fc of the bought chimera

[18] = biological target: T18, rHuman EGF R/Fc Chimera, CF (R&D Systems Cat#344-ER) (human, UniProt P00533 25-645); experiment: ECL (MSD multi-spot), antigen on plate, Fab 10 nM;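 also: blank spot per well as comparator with Hit at signal to blank ratio of 4 or more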
T18 construct: Bought Fc chimera; also called ErbB-1; not shown: Fc of the bought chimera

[19] = biological target: T19, rHuman Notch-1/Fc Chimera, CF (R&D Systems Cat#3647-TK) (human, UniProt P46531 19-526); experiment: ECL (MSD multi-spot), antigen on plate, Fab 10 nM;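 also: blank spot per well as comparator with Hit at signal to blank ratio of 4 or more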
T19 construct: Bought Fc chimera; not shown: Fc of the bought chimera

ECL signal [1]: 1020 ECL signal | ECL signal [2]: 1160 ECL signal | ECL signal [3]: 1450 ECL signal | ECL signal [4]: 1180 ECL signal
B1: Fab VH5-51_IGHD5-18*01>3_IGHJ4*01_G100R & V3-4_IGLJ1*01 (Fab, V domains shown)
VH: EVQLVQSGAEVKKPGESLKISCKGSGYSFTSYWIGWVRQMPGKGLEWMGIIYPGDSDTRYSPSFQGQVTISADKSISTAYLQWSSLKASDTAMYYCARRRYSYGYDYFDYWGQGTLVTVSS
VL: QTVVTQEPSFSVSPGGTVTLTCGLSSGSVSTSYYPSWYQQTPGQAPRTLIYSTNTRSSGVPDRFSGSILGNKAALTITGAQADDESDYYCVLYMGSGISYVFGTGTKVTVL
notes: It was expressed as a Fab: CH1 with tags from Plasmid A and lambda CL from Plasmid E; also called Fab No. 23

ECL signal [5]: 348 | ECL signal [6]: 687 | ECL signal [7]: 290 | ECL signal [8]: 205 | ECL signal [9]: 373 | ECL signal [10]: 375 | ECL signal [11]: 322 | ECL signal [12]: 247 | ECL signal [13]: 16300
B2: Fab VH1-46_IGHD6-6*01_IGHJ1*01 & L6_IGKJ1*01 (Fab, V domains shown)
VH: QVQLVQSGAEVKKPGASVKVSCKASGYTFTSYYMHWVRQAPGQGLEWMGIINPSGGSTSYAQKFQGRVTMTRDTSTSTVYMELSSLRSEDTAVYYCAREEYSSSSAEYFQHWGQGTLVTVSS
VL: not shown
notes: Expressed in E. coli as Fab: heavy chain with CH1 plus Flag and His tags from Plasmid A, kappa light chain constant region from Plasmid C; also called Fab No. 1

ECL signal [14]: 136 ECL signal | ECL signal [15]: 212 ECL signal | ECL signal [16]: 216 ECL signal | ECL signal [17]: 136 ECL signal | ECL signal [18]: 207 ECL signal | ECL signal [19]: 280 ECL signal
B3: Fab VH1-46_IGHD6-6*01_IGHJ1*01_S102A_S103P_S104F & L6_IGKJ1*01_S28P (Fab, V domains shown)
VH: B2 VH with S102A, S103P, S104F
VL: EIVLTQSPATLSLSPGERATLSCRASQPVSSYLAWYQQKPGQAPRLLIYDASNRATGIPARFSGSGSGTDFTLTISSLEPEDFAVYYCQQRSNWPPWTFGQGTKVEIKR
notes: Fab
